Reference: the domain aggregation screens of Martell et al. (2025)

Test: soluble fraction after stress (log2 fold change); higher = more stays soluble; pooled small domains, quantitative proteomics
Conditions: stress: pH 4
Outline: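 How much of each domain stays soluble after acid stress, expressed as a fold change, is used to gauge aggregation propensity. Pooled custom libraries of small domains underwent pH 4 stress before high-throughput quantitative proteomics. A higher log2 value means more of the domain stayed soluble.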

Row | Sequence | soluble fraction (log2)
1 | HMGFTDREREIIRNDLVATGRELFGTFGLKKTSIEDLTKAVGIAQGSFYTFFNSKEELYLEVMDREGEA | -1.47
2 | HMGGALSPDFGWLAMIDPDEGRAITLYDIASGEAIAVLDTHEARVAALAWSPDGTRLASGDQNGLIVQWEI | -1.43
3 | HMGGEEPYGSGSLRLAAGAVVPSGYTIKGNEDSMLYHTTESPWYKQTIAEVWFNAESAAQRAGFTRWDAKD | -0.672
4 | HMGGEIGSGKNGYVAFYKGKKVDVKADSMYGAQKTAAKYFNAKKEYDVNVVLAEVDGKQYVQS | 0.151
5 | HMGGGVERLTPRQREVLGYMAEGRSNSWIAGAIGFSEKAVVQHTSKIYDALGLAVDADDHRRVLAVLRYLT | -1.07
6 | HMGGKWKLRILWHIHHGDTRFSTLKRGIPEISEKILAQQLRELEEHQLIKRRVVTVMPPHVVYEL | -0.518
7 | HMGGLAEIILNAIEIEGGFLPITDKSAPELIQSRLGMSKKAFKEAVGTLYKNRDIAIEPNGLRKI | -0.162
8 | HMGGLALAEREVVEWLSQRNLLPSPDVVARAAAHPDGLGWLERSLAVLEGPRLFLGLGDLVPEP | -1.02
9 | HMGGLAVQLVHAMTDQIRSGRLKAGDKLPTEAAIMKDFGVSRTVVREAISRLQASGWVDTRHGIGTFVLHQ | 0.188
10 | HMGGLIEPLSARELEVLELMSLGKTNQEIARDLVVASGTIKAHAASIYRKLDAANRTEAVTHARELGIL | -0.814
11 | HMGGPEVLELEDVKVGSPGPDEIKVTNHAIGLNYIDTYHRSGLYPLKLPSGIGLEAAGKVEEIGSNV | -0.511
12 | HMGGQEEALNRLVLRELLGTLEKKERDLIVRRYFYDQTQTKIAEALGISQVQVSRMEKRILKKMREGF | -0.833
13 | HMGGRSARVRRAVLDAVVELLGEGGVRAVTIAEVAKRSGVNASSIYRRWRSIDALILDAAQDL | -0.578
14 | HMGGSDIYLGAFNIPQGSVRVTSGGQALTEGKDFTIDYNLGSVKIINQAILNSGIPVSVSYENNAG | -0.294
15 | HMGGSLADAKRFLADLLADGPVPAKGVRADADGAGHTWPTIRRAQKALGIEATKTGMKGGWVWALPR | 0.00461
16 | HMGGSVYTVQKGDTLWSIAKEQLGSPLRYAEIYDLNKDVIEEAARGRGKKDSSNGHWLVVGTSLQIPEAT | -0.077
17 | HMGGTAGKINAIGVNFRTGPSTSYTSLGLLGKDTAVTVIGTSGKWYKVTIVSTGKTGYVYATYVNLTP | -0.102
18 | HMGGVIEDDRGQWAHPGEVTKINSNNITMKGVDFPVLGISDTGDKKMMQPGKDYKFDGNSVTEYPMA | -0.5
19 | HMGGWEEGVYVVREGDTLSDIVHDAVKGTEIHPDFILNAIVRVNPSAFVRGNPSWMLAGKKIK | -0.373
20 | HMGGYVTGTIDLTKFGYAFVITEESEDDVFVAARNLNTALHGDQVKVLLYARHKGKRPEGEVVEIISRSRA | -1.4
21 | HMGHEEPITFDRLPQAAQTFLKTHFDTLTVAYIVADRKFMGVEYEVKYTDRTEVDFRSDGQWESV | -0.443
22 | HMGHKTLTVELQEKIENLPQTLDKYNLTLGNNKMSVDYTYSVKEKQTGITNLLQDLKEHKFDIVYLVGQDN | -0.613
23 | HMGHLSNENAGRLLDRVLNDKIHAIMLGHLSKENNMPELAHEAVRMEITMGESRYKADDFPIYVA | -0.00322
24 | HMGHTKLVVDIVEELKLEQGALLPILHAIQDELGYVPTKSVPFIADSLNLSRAEVHGVISFYHYFR | -0.741
25 | HMGIAWGMLREQVAASDVSYRSEVLDILDRTPVWIYDAEGKIVDGRKKRLMDLQGGEPYRHMLEHFFPDLR | -1.96

Row | Sequence | soluble fraction (log2)
26 | HMGIDAIDNFVSKIIMKIEGLGESEVPTSTIGKFIMEGLQYLDTVAYVRYASVYKNFKEAKDFEQFVGSL | -0.566
27 | HMGIDRPLFTLAQFARQIGEQVKISLSLPQDGRRRLQGKVLSVGESGIVLDVDGREFTVAIGNVDKARL | -0.197
28 | HMGIDSSVYVEARYELGHLYLKQKKYAAAYASFKEILDMYASTTPGVLPGAYNKLAEIGMKRIPKNKL | -0.182
29 | HMGIIQAQIPGLVSRLFVKKGDKVAVNQRLFILEAMKMENEIDSPIQGMVEKIHITTGSKVEKGDLIMEIV | ≥ 0.43
30 | HMGIIYGKNPVLEAISSGTTINKIYAQTSNKEIDSVIKEALKRKIIVVNTDKQKLDKMIDGKNSQGIIASI | 0.36
31 | HMGIKAADIVTNDIQFNTQAQFDKYKDLYPTLGWGNYDPNKTYTMQGFKNKLKPNELFTGTPNLKIEDT | -0.105
32 | HMGIKDRIVYIMEKEKLSIPLFAKKIGIGPSTLLHIIRGKNAPSLQVVQAIHKAYPDIDLNWLI | 0.0346
33 | HMGIKSSASLQEAAEKAQSAYYDIEHSGVATAVDIQRAWVAMVAAQIDAGEKLDSGTITLYERLKTST | -0.0327
34 | HMGIMNFDTWLKSLPGTPTPTIAAKKSGLAAPTLLRHVERGYSTADNVIAIAKAYGVSPIDALVDNGML | -0.201
35 | HMGIMSEITHRVLRLLGLLESRSTWTGSDLAERLGVTQRTIRRDVIRLRELGYQVDSVQGLDGGYRMS | -0.0721
36 | HMGIPVSIGQLDFNQARGNLALQVRASDFAALEQLRQRLGQTGESVQLGSASRDGDAVSARVVIGGQ | -0.0672
37 | HMGIQQNHMTLHARSVASSANVPAEHFDTLVEKLIESGDIKVWKAREILMNLSRQHEEILDES | -0.365
38 | HMGISGSDLEKMIRNILVNNTDVVETIKSGQDKKGKKQKFLQGLIMKEARGQTDPREAASLLAKLLE | 0.202
39 | HMGITMFGQNLKKLRTSKNLSQSKLSKILGISSSTIGMYEQGRRFPDQTILTKIADFFDVSTDYLLGR | 0.339
40 | HMGIVAQLPTIRVNGKTLYYYDAQSGDNIYSIAEKLGVTVEDIRANNPGVADGVKPRMRLFFPTSLAK | 0.0671
41 | HMGIVYGVIKENWDQDHPGMVKVEILQGESGKNVSDWIPVMSPYAGKEFGAYALPEIGTQAVVAFE | -0.0368
42 | HMGIYDQAAAAYIEFVESKNRAPKWNELIDALYKENGKDWIDRSTLHGLLRRKEFQELLAQKRKEHLV | -0.159
43 | HMGIYFIIAAKNQENNIEEFIRTTLFRIVYGKEESINNITLVDLKSKDNTKNIMEEIARENENVKV | -0.696
44 | HMGKAPREVQVGELLRVPALNAEGEVLRRDGESVELSIQGKKLRLPLAQLEAFSPRRFARRGEGKVRGRIE | 0.266
45 | HMGKDLLGYEVFAESGDLVGILKDVMWLPHSDVYVITKGGKEFLIPVIPEVVKGINHEQGVIVISPMEGLL | -0.572
46 | HMGKDTLKLKKNAIPYDENGKKLTNLGYSYIKKTTVLNYYGTKIINGSTYYFLGDGVYIKAANVGTTSH | 0.232
47 | HMGKEYERALQQVTKSEIDSDEKLQQQMDALVNSPRISDKEDAWALLLVKKLRNEGVEWDELPDVLSERVQ | -0.856
48 | HMGKGGVAYLLESEFGIELPKDMQREFGPIANDIVDSLGREVSGAELKSMFWKEYIERETPFLLLLVTGQL | -0.762
49 | HMGKIFSELTPREIEVVRLIADGLSNQQIAEELFLSNGTVRNHISTILEKTGLEHRTQIAVMWLR | -0.742
50 | HMGKKIVERRNTILNMVNKYGTLDFPQLRDAFPDVSDVTLRKDLQYLDSTKQAIRTHGGIKSI | -0.00897

Row | Sequence | soluble fraction (log2)
51 | HMGKLQFREKLNGILELGKEKHRVLTMEDVEKYFEEDALSEEQMELVYDYLLSQKIAVTGYVKK | 0.414
52 | HMGKPPNNRIHRAKRDYALNLVKEHYPDFGPTLAAEKLAEHHGFTVSRETLRKWMIEDGIWLSRKQRR | -0.0217
53 | HMGKQIKEIVEEYYDSTSKNSPVGGSWKTSLDGVDLTSPNITIWTRTKIKYVDGSESIVTPQSL | -0.528
54 | HMGKRPTIQMVAEMAGVSRGTVDRVLNGRSYVSAQVRQRVLAALQETGYISSREHHQQALQS | 0.0645
55 | HMGKRRGLKVAEEVFADRGYNPDGTLVNRSLPGAFVKDPDEAIARVIKMVKTKKVTAVNGEEIDIAADSI | -0.462
56 | HMGKSDEIFIQKSALYEELGQPDRALEMIYSALKSDSLNIDVLHRLVTLLINQNKNEDAILYNQKIID | -0.424
57 | HMGKTEETLQMEKLVEALRRSGRMKYEDAYRIVYAAFPDAKDFEGMLSGAIRAGFIELQMGNDGAFLRAL | -0.67
58 | HMGKVNGFEITVIEGKNVVGSITPRQAIAKNSDGVIQLRGEQSFSATDQVLINELAFYIKSNNLKA | -1.23
59 | HMGLAALLQSGPVAGTVLSHQPGGKVVIAFQGQAYPLNLKGRTLQPGQSVLARMAGEQISLEVI | -0.0159
60 | HMGLDERNLKLFAASLLEQAGKKITESTMTYLLDKTGSDMENIQNEVEKIIGYTMNHTVVTTEDIDAV | -0.745
61 | HMGLDPVFKKWVDDNPWYTENRVLRALTHDYAEELKQTNPQLVGVEFLDQVKKRVQADHPEFFQ | -0.552
62 | HMGLGDLEVVDSIGKIRRDGQQMILAFGRHKGRDVQEVYNEDPRYINWLLSPKGIEDENGRGKVRDYLGIN | -0.678
63 | HMGLKQADFEELASRIFTVLEEKSMTPAEIVRKLNLEPDRISIVIQYLLDEGKLNIKDGFINNSA | -0.773
64 | HMGLLGIYPNPVEGGSVRLLSDADLFGSRFELYDQSGKLVLNGFVTEGNFVSVKGISSGLYISVSYT | 0.00514
65 | HMGLLGTDISAETMIGYFKKIDLGFDEETQEVIVPSWRQDLLRDADIAEEVARFYGYDNIPTTLPSGEST | -0.736
66 | HMGLNLIGLKRSGFAPEEVKAMTRAYMYIFKSAEGNFESRLAKAHEKYKDDALIMEMVEFIDDALKG | -0.227
67 | HMGLQEADKQDRIARMKELISFLNEAAKAYYQEGREIVSNLEYDKAYDALLSLEKESGVVLSGSPSQNVG | -0.659
68 | HMGLRERLLNYIAYKGIDKATLERKSGLSNDAVNKMGDNTRVSTLDKISNAFPDINIAWLKTGVGEMILG | 0.146
69 | HMGLSAALKARLREVINEMAKSGAQPKLREWALAEGIGNFAKPETPEAAEAVIAKAQELLAEA | 0.429
70 | HMGLSASVIQMFADLGYTSEGRSTKEMITDYQIDHSIIKNSTEDGAGTYGPRTKASLSTVHAQYI | -0.535
71 | HMGLSENALAMLKQQETVLIRLIDGRGNQGALASINLIVSRILNLDIVDRTPEDLLRVIASEGEQND | -1.54
72 | HMGMIRFSKEEQMLMMLYSPGSRLGLIAELESMKLQLNSRERKLRNLAESVLKKLEQITDEEFMQFDF | -1.11
73 | HMGMNSGQADFRGISLALSVDAEAEAQRLFTALADGGQVQMPLSKTFFSPAFGMVADRFGVGWMVVTN | -0.0936
74 | HMGMSENIDKVAGGIPYKVEGNKAIINEPLDDATKERLMGKAKEHGYHAAPNQAGGITITLK | 0.0104
75 | HMGMSKQKQSSLVRIIMQEISDANEGRMKMSQIIDAALIKGISDSTVRSVISRLSTTGAIYEPQTGTYEW | -0.374
